Source: patent US9365899

Biological target: yeast Fab1/PIKfyve kinase (yeast) (UniProt P34756)
Assay: cell-based or functional assay

Sequence of UniProt P34756 (P34756 2-2278 limits assumed): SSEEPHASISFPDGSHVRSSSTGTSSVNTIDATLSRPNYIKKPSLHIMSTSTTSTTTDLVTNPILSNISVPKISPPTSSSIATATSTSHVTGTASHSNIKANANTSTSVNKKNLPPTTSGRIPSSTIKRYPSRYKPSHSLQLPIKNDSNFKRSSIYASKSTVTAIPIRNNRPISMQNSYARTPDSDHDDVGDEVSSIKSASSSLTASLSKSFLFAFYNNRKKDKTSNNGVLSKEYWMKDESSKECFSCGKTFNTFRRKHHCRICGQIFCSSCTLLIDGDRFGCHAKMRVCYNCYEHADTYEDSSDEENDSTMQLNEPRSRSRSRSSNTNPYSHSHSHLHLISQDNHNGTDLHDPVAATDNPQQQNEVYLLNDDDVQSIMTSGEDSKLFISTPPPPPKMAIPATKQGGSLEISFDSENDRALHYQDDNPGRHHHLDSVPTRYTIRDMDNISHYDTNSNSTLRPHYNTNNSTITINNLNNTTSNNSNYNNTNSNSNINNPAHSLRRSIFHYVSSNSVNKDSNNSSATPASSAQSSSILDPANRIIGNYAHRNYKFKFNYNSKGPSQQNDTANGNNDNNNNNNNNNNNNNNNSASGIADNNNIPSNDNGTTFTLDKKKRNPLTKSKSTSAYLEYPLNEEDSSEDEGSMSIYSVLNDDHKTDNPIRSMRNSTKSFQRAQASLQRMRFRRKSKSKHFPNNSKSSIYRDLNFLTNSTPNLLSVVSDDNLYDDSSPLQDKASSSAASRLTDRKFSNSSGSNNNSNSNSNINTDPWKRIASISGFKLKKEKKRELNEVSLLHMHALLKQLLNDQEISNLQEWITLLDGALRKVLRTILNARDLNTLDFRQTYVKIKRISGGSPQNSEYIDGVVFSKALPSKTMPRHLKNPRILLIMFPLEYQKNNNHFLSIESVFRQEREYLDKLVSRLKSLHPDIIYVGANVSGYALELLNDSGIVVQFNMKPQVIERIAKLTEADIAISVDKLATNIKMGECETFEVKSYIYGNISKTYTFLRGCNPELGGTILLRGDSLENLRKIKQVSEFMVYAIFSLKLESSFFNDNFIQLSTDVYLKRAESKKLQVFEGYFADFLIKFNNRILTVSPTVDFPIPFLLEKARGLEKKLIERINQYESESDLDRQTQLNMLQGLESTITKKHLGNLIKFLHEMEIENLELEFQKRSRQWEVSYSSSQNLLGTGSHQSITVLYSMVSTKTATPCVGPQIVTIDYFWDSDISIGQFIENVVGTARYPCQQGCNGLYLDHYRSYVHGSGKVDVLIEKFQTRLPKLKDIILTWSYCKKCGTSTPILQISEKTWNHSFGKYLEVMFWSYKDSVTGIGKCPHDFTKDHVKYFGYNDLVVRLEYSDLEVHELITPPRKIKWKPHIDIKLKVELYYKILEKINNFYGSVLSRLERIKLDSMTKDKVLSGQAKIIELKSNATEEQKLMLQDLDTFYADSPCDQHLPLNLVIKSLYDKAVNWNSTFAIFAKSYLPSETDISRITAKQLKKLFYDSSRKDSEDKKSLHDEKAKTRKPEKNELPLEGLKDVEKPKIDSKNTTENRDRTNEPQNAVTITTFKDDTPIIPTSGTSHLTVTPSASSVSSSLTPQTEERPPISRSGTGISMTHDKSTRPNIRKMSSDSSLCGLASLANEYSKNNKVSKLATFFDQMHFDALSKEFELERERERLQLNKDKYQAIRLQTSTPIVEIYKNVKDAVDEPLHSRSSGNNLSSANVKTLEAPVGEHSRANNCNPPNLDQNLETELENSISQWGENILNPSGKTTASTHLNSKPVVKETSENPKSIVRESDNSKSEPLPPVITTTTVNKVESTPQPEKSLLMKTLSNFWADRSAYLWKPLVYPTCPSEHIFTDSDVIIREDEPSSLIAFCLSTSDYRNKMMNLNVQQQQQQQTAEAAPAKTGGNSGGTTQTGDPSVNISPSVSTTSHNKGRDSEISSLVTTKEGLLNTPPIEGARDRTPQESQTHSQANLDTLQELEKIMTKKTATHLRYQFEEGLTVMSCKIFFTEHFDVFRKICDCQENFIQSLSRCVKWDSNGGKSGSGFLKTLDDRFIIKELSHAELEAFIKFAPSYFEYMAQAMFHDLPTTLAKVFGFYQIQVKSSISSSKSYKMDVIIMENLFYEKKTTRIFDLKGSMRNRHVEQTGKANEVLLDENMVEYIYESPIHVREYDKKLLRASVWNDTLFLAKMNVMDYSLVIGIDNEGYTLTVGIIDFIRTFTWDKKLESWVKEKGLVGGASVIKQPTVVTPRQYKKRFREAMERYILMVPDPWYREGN

Substance	increase in intracellular PI(3,5)P2 concentration after hyperosmotic shock
yeast FIG4 protein with the Ile>Thr mutation corresponding to human I41T (from UniProt P42837 1-879) (enzyme)	4 fold
yeast FIG4 protein, wildtype (from UniProt P42837 1-879)	10 fold
